Article PMC3596311, “PTB-Associated Splicing Factor (PSF) Is a PPARγ-Binding Protein and Growth Regulator of Colon Cancer Cells” (PLoS ONE, 2013)

Target: T1, PSF, full-length, fused to the GAL4 DNA-binding domain (pFN11A-PSF) (human, UniProt P23246 1-707)
T1 construct: PTB-associated splicing factor (PSF), human, full-length cDNA (GenBank BC051192), 707 amino acids; CheckMate/Flexi Vector Mammalian Two-Hybrid System (Promega), vector pFN11A; also called Gal4-PSF; source: CV-1 cells, transiently transfected, mammalian two-hybrid fusion
T1 sequence (looked up): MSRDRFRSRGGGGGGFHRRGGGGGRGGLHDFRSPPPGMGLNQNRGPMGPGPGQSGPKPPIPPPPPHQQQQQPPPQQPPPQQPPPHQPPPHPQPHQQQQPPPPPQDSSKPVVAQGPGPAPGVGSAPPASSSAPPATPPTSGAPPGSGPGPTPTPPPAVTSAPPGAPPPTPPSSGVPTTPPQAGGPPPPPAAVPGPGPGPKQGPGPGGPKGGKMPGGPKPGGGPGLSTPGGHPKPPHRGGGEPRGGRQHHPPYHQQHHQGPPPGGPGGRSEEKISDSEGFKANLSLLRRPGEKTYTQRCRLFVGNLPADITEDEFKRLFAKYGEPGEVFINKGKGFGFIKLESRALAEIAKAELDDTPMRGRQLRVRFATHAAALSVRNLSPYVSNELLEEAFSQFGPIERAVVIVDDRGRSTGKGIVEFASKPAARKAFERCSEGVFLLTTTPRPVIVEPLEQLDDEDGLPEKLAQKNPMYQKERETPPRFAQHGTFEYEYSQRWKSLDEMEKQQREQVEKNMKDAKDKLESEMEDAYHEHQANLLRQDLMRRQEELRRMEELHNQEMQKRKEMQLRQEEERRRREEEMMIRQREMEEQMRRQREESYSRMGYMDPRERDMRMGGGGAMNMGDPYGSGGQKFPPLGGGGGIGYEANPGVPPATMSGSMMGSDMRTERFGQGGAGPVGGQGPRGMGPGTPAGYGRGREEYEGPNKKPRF
Test: two-hybrid; mammalian two-hybrid in CV-1 cells: GAL4 DNA-binding domain-PSF (pFN11A) and VP16-PPARγ1 (pFN10A), GAL4-UAS luciferase reporter; also with rosiglitazone 0.1–10 µM, which did not affect the interaction
Conditions: partners not purified

- fold induction of GAL4 promoter-driven luciferase over empty vectors: 3 fold
B1: PPARγ1, full-length, fused to the VP16 activation domain (pFN10A-PPARγ1) (natural protein, UniProt P37231-2 1-477, looked up)
chain: MTMVDTEMPFWPTNFGISSVDLSVMEDHSHSFDIKPFTTVDFSSISTPHYEDIPFTRTDPVVADYKYDLKLQEYQSAIKVEPASPPYYSEKTQLYNKPHEEPSNSLMAIECRVCGDKASGFHYGVHACEGCKGFFRRTIRLKLIYDRCDLNCRIHKKSRNKCQYCRFQKCLAVGMSHNAIRFGRMPQAEKEKLLAEISSDIDQLNPESADLRALAKHLYDSYIKSFPLTKAKARAILTGKTTDKSPFVIYDMNSLMMGEDKIKFKHITPLQEQSKEVAIRIFQGCQFRSVEAVQEITEYAKSIPGFVNLDLNDQVTLLKYGVHEIIYTMLASLMNKDGVLISEGQGFMTREFLKSLRKPFGDFMEPKFEFAVKFNALELDDSDLAIFIAVIILSGDRPGLLNVKPIEDIQDNLLQALELQLKLNHPESSQLFAKLLQKMTDLRQIVTEHVQLLQVIKKTETDMSLHPLLQEIYKDLY
notes: CheckMate/Flexi Vector Mammalian Two-Hybrid System (Promega), vector pFN10A; also called VP16-PPARγ; VP-16-PPARγ1; source: CV-1 cells, transiently transfected, mammalian two-hybrid fusion
